# Results published in patent publication US20260102461A1 (AIKIUM, published 2026).
# Residue numbers refer to the chain shown, from its start.
# T1: KAAG1 disordered region peptide, PGAAAAHLPRWPPPQLAASRREA (biotin (position not given))
# T1 peptide: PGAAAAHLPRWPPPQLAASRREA
# T2: MERKFMSLQPSISVSEMEPNG (N-terminal biotin)
# T2 construct: First of three overlapping 21-mers of the CYSLTR2 N-terminal disordered region
# T2 peptide: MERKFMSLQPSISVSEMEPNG
# T3: CD40LG Epitope NKEETKKENSFEMQKGDQNPQIAAH (biotin (position not given))
# T3 peptide: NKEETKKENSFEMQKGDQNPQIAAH
# T4: CYSLTR2 N-terminal disordered region, MERKFMSLQPSISVSEMEPNGTFSNNNSRNCTIENFKREFFP (biotin (position not given))
# T4 construct: also called CysLT2; CysLT2r
# T4 peptide: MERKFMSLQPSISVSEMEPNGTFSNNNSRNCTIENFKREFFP
# T5: TNFRSF13B disordered region peptide, LPPELRRQRSGEVENNSDNSGRYQ (biotin (position not given))
# T5 peptide: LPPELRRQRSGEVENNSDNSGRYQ
# T6: GMERKFMSLQPSISVSEMEPNGTFSNNNSRNCTIENFKREFFP (biotinylated, position not given)
# T6 peptide: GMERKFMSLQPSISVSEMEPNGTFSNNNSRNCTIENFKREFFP
# T7: CYSLTR2 Epitope SISVSEMEPNGTFSNNNSRNC (N-terminally biotinylated)
# T7 peptide: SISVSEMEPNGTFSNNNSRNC
# T8: KCNA6 Epitope QQQEQQPASGGGGQNGQQAMS (biotin (position not given))
# T8 peptide: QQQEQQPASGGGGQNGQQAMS
# T9: CD74 disordered region peptide (CLIP), PPKPVSKMRMATPLLMQALPMGALP (biotin (position not given))
# T9 peptide: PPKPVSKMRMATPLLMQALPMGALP
# T10: Urotensin-2 receptor (UR-II-R) disordered region, MALTPESPSSFPGLAATGSSVPEPPGGPNATLNSSWASPTEPSSLEDLVATGTI (biotin (position not given))
# T10 construct: also called Urotensin II R; GPCR2 (Urotensin II)
# T10 peptide: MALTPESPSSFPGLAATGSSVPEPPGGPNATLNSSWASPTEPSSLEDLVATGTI
# B1: S177 (designed binder)
# chain: MIKEEHVINQAEYYLNPDQSGEFKFDFDGDEIFHVDMAKKETVWRLEEFGRFASFEAQGALAHIAVDKANLEIMTKRSNYTPMGDTRPRFLWQLKYECHFFNGTERVRLNERCIYNQEESVRFDSDVGEYRAVTELGRPDAEQWNSQKDHLEQRRAAVDTKCRHNYGVGESFTVQGGSHHHHHHLE
# notes: Computationally derived from S005; 21.92 kDa
# B2: S058 (designed binder)
# chain: GSHSMRYNYTSVSRPGRGEPRFISEGYVDDTQFVRFDSDAASPREEPRAPWIEQEGPEYWDRNTQIYKAQAQTDRESLRNLRGYYNQSEAGSHTLQSMYGCDVGPDGRLLRGHDQYYYDGKDYISLNEDLRSWTAADTAAQITQRKWEAAREAEQRRAYLEGECVEWLRRYLENGKDKLERADGGSHHHHHHLE
# notes: Derived from MHC I proteins
# B3: S065 (designed binder)
# chain: B2 chain with N8F, E25V, Y59A, Y117A, Y123S, S125A, K146Y, W167H, Y171V
# notes: Derived from MHC I proteins
# B4: S193 (designed binder)
# chain: MGSKARMATGALAQAGGSGGSMIKEEHVINQAEYYLNPDQSGEFKFDFDGDEIFHVDMAKKETVWRLEEFGRFASFEAQGALAHIAVDKANLEIMTKRSNYTPMGDTRPRFLWQLKYECHFFNGTERVRLNERCIYNQEESVRFDSDVGEYRAVTELGRPDAEQWNSQKDHLEQRRAAVDTKCRHNYGVGESFTVQGGSHHHHHH
# B5: S194 (designed binder)
# chain: MGIKEEHVINQAEYYLNPDQSGEFKFDFDGDEIFHVDMAKKETVWRLEEFGRFASFEAQGALAHIAVDKANLEIMTKRSNYTPMGGGSKARMATGALAQAGGSGGSGDTRPRFLWQLKYECHFFNGTERVRLNERCIYNQEESVRFDSDVGEYRAVTELGRPDAEQWNSQKDHLEQRRAAVDTKCRHNYGVGESFTVQGGSHHHHHH
# B6: S164 (designed binder)
# chain: GIKEEHSIRQNEKYNNPDQSGNFEFHLDGQPIFRVDMQKKRTKWQLEEFGRFASFEAQGALANIAVFKINLEIMTKRSNQSEAGSHSWQLNFTCEFHEGTESVRLSERSYYNQENFVSFNSDVGEYRATTELGRPMAEYVNSQKDTLEQRRAAVDTYCRHNYGVGEYFTVQRR
# notes: Computationally derived scaffold
# B7: S171 (designed binder)
# chain: GDTRPRFLWQLKWECHFYNGTERVRLNERCNYNQEESVRFDSDVGEYRAVTELGRPDAEFSNSQKDNLEQRRAAVDTLCRHNYGVGESFTVQRRSGGGIKEEHVINQAEYYLNPDQSGEFKFDFDGDEIFHVDMAKKETVWRLEEFGRFAIIEAYGALANIAVDKANLEIMTKQSNYT
# notes: as for B6
# B8: S180 (designed binder)
# single chain: MKEEHVIIQAEFYLNPDQSGEFMFDFDGDEIFHVDMAKKETVWRLEEFGRFASFEAQGALANIAVDKANLEIMTKRSNYTPITNTRPRFLWQPKRECHFFNGTERVRFLDRYFYNQEESVRFDSDVGEFRAVTELGRPDAEYWNSQKDILEQARAAVDTYCRHNYGVVESFTVQRRVQGGSHHHHHHLE
# B9: S189 (designed binder)
# single chain: MGIKEEHVINQAEYCLNPDQSGEFKFDFDGDEIFHVDMAKKETVWRLEEFGRFASFEAQGALAHIAVDCANLEIMTKRSNYTPMGDTRPRFLWQLKYECHFFNGTERVRLNERCIYNQEESVRFDSDVGEYRAVTELGRPDAEQWNSQKDHLEQRRAAVDTKCRHNYGVGESFTVQGGSHHHHHH
# B10: S068 (designed binder)
# chain: GDTRPRFLWQLKFECHFFNGTERVRLLERCIYNQEESVRFDSDVGEYRAVTELGRPDAEYWNSQKDLLEQRRAAVDTYCRHNYGVGESFTVQRRVEPKVTVYPSKTQPLQHHNLLVCSVSGFYPGSIEVRWFRNGQEEKAGVVSTGLIQNGDWTFQTLVMLETVPRSGEVYTCQVEHPSVTSPLTVEWRASGGGGSGGGGSGGGGIKEEHVIIQAEFYLNPDQSGEFMFDFDGDEIFHVDMAKKETVWRLEEFGRFASFEAQGALANIAVDKANLEIMTKRSNYTPITNVPPEVTVLTNSPVELREPNVLICFIDKFTPPVVNVTWLRNGKPVTTGVSETVFLPREDHLFRKFHYLPFLPSTEDVYDCRVEHWGLDEPLLKHWEFDAPSGGSHHHHHHLE
# B11: S077 (designed binder)
# chain: KPVSKMRMATPLLMQALPMASGGGGSGGGGDTRPRFLWQLKFECHFFNGTERVRLLERCIYNQEESVRFDSDVGEYRAVTELGRPDAEYWNSQKDLLEQRRAAVDTYCRHNYGVGESFTVQRRSGGGIKEEHVIIQAEFYLNPDQSGEFMFDFDGDEIFHVDMAKKETVWRLEEFGRFASFEAQGALANIAVDKANLEIMTKRSNYTGGSHHHHHHLE
# B12: S143 (designed binder)
# chain: MGDTRPRFLWQLKFECHFFNGTERVRLLERCIYNQEESVRFDSDVGEYRAVTELGRPDAEYWNSQKDLLEQRRAAVDTYCRHNYGVGESFTVQRRVIKEEHVIIQAEFYLNPDQSGEFMFDFDGDEIFHVDMAKKETVWRLEEFGRFASFEAQGALANIAVDKANLEIMTKRSNYTPTINGGSHHHHHH
# B13: S134 (designed binder)
# chain: MVKYHHHHHHGGSENLYFQGMGDTRPRFLWQPKRECHFFNGTERVRFLDRYFYNQEESVRFDSDVGEFRAVTELGRPDAEYWNSQKDILEQARAAVDTYCRHNYGVVESFTVQRRVIKEEHVIIQAEFYLNPDQSGEFMFDFDGDEIFHVDMAKKETVWRLEEFGRFASFEAQGALANIAVDKANLEIMTKRSNYTPITN
# Biological target: T1, KAAG1 disordered region peptide, …
# Experiment: ELISA, scaffold coated on the plate, biotinylated peptide titrated, streptavidin-HRP fluorescence
# Method: (§1) Binder proteins were coated on the surface of a high binding capacity 96 well plate by incubating 100 μL of protein at […] in a coating solution (10 mM Tris pH 8.8, 50 mM NaCl), overnight at 4 C. The next morning, the coating solution was aspirated out and wells were washed once with 300 μL ELISA wash buffer (lx PBS, 0.05% Tween-20) and solution was aspirated out. The wells were blocked with 200 μL of a blocking buffer (1×PBS, 0.05% Tween-20, 3% BSA) at room temperature for 1 hour. After one hour, the blocking solution was aspirated out and 100 μL of biotinylated polypeptide in a binding buffer (1×PBS, 0.05% Tween-20, 0.5% BSA) at various concentrations was added to the appropriate well and incubated for 20 minutes. Peptide solution was aspirated out after 20 minutes and wells were washed 5 times with 300 μL of ELISA wash buffer. To detect the biotinylated peptide, 100 μL of streptavidin-HRP (50 ng/mL) was added to each well and incubated for 1 hour. The wells were subsequently washed 5 times with 300 μL of ELISA wash buffer. 100 μL of QuantaBlu Fluorogenic Peroxidase substrate solution was added to each well, incubated for 30 minutes and reaction stopped by adding 100 μL of stop solution. Fluorescent signal from each well was measured using a Biotek Cytation5 plate reader by exciting the fluorophore at […] and measuring emission at 420 nm. Fluorescent signals were plotted as a function of polypeptide concentration.
row,Binder,binding result
1,B1,no binding (tested: 10000 nM)
2,B2,binds
3,B3,no binding (tested: 10000 nM)
4,B4,no binding (tested: 10000 nM)
5,B5,no binding (tested: 10000 nM)
6,B6,no binding (tested: 10000 nM)
7,B7,no binding (tested: 10000 nM)

# Biological target: T2, MERKFMSLQPSISVSEMEPNG
# Experiment: as above
# Method: as §1
row,Binder,binding result
1,B1,no binding (tested: 10000 nM)

# Biological target: T3, CD40LG Epitope NKEETKKENSFEMQKGDQNPQIAAH
# Experiment: as above
# Method: as §1
row,Binder,binding result
1,B1,no binding (tested: 10000 nM)
2,B4,no binding (tested: 10000 nM)
3,B5,no binding (tested: 10000 nM)

# Biological target: T4, CYSLTR2 N-terminal disordered region, …
# Experiment: as above
# Method: as §1
row,Binder,binding result
1,B6,no binding (tested: 10000 nM)
2,B7,no binding (tested: 10000 nM)

# Biological target: T5, TNFRSF13B disordered region peptide, …
# Experiment: as above
# Method: as §1
row,Binder,binding result
1,B1,no binding (tested: 10000 nM)
2,B4,no binding (tested: 10000 nM)
3,B5,no binding (tested: 10000 nM)

# Biological target: T6, GMERKFMSLQPSISVSEMEPNGTFSNNNSRNCTIENFKRE …
# Experiment: as above
# Method: as §1
row,Binder,binding result
1,B1,binds
2,B8,binds
3,B4,binds
4,B9,binds
5,B5,binds

# Biological target: T7, CYSLTR2 Epitope SISVSEMEPNGTFSNNNSRNC
# Experiment: as above
# Method: as §1
row,Binder,binding result
1,B1,binds
2,B8,binds
3,B4,binds
4,B9,binds
5,B5,binds

# Biological target: T8, KCNA6 Epitope QQQEQQPASGGGGQNGQQAMS
# Experiment: as above
# Method: as §1
row,Binder,binding result
1,B1,no binding (tested: 10000 nM)
2,B4,no binding (tested: 10000 nM)
3,B5,no binding (tested: 10000 nM)

# Biological target: T9, CD74 disordered region peptide (CLIP), …
# Experiment: modified sandwich ELISA, fluorescence grade (key: >400000, Strong binding)
row,Binder,fluorescent signal
1,B10,> 400000 fluorescentsignal
2,B11,> 400000 fluorescentsignal
3,B12,> 400000 fluorescentsignal

# Biological target: T10, Urotensin-2 receptor (UR-II-R) …
# Experiment: modified sandwich ELISA (scaffold coated, biotinylated peptide, streptavidin-HRP fluorescence)
row,Binder,binding result
1,B2,"no binding (tested: <5000 (fluorescence signal, key))"
2,B3,"no binding (tested: <5000 (fluorescence signal, key))"

# Biological target: T1, KAAG1 disordered region peptide, …
# Experiment: as above
row,Binder,binding result
1,B10,"no binding (tested: <5000 (fluorescence signal, key))"
2,B11,"no binding (tested: <5000 (fluorescence signal, key))"
3,B12,"no binding (tested: <5000 (fluorescence signal, key))"
4,B13,"no binding (tested: <5000 (fluorescence signal, key))"
